Measurements taken from EP2878677A1, “Activators of protein phosphatase 5” (Deutsches Zentrum für Neurodegenerative Erkrankungen e.V. …, priority 2013, dated 2015).

Target: YFP-Hsp90/DAF-21 (N-terminal YFP-tagged Hsp90) (C. elegans) (UniProt Q18688)
Assay: sedimentation velocity AUC with fluorescence detection; 300 nM YFP-Hsp90, 3 uM PPH-5; YFP-Hsp90 alone 6.8 S

Work on “PPH-5 (C. elegans protein phosphatase 5) (enzyme)” yielded a sedimentation coefficient (s20,w) of YFP-Hsp90 in complex with PPH-5 of 8.9 S.
